Test: soluble on expression in E. coli; label from the status in PepcDB or PDB records

Sequence	soluble on expression in E. coli
ARLRAGFEAAGAQGVETPILQPAETLLDLYGEDIRARAYVTSDALRGEQMLRPDFTVPVVQKHMEHGAEPARYTYAGEVFRRQEHDPDRANEYIQVGYEVFDRTNPAAADAEVFALIAQALDGLALRAATGDIGILMAAVEGLKTTEPRKAALMRHIWRPRRFRALLDRYAGRTTVPPARAALLAESEPLADGAPEIGKRSRAEVEARIEVLRADAAAAPISDNEMAGLDALLSVRETMPYALEHLRDIAVDLPQITPALDRLEARIAALRARGINVDRLDFEASYGRTSMEYYDGFVFGFYAERRPDLPPIATGGRYDALTRRLGNGAEIPAVGGVLRPGLMLLLAEAE	not soluble
MSLARHEAIVEPAQSTHTSGAHTSGAQAQPGVRPTTAAGRWRDVEMMAYKQDDAAPFRDVTRQLLFSDPRLACEWRYFEVAAGGYSTLEKHDHVHGVMIHRGKGQCLVGHHVSDVAVGDLVFIPPQTWHQFRANAGDVLGFLCLVNAERDRPQLPGDGDLAALRADPAIADFLSSEGHHHHHH	soluble
AMSTQGLVQLLANAQCHLRTSTNYNGVHTQFNSALNYKNNGTNTIDGSEAWCSSIVDTNQYIVAGCEVPRTFMCVALQGRGDADQWVTSYKIRYSLDNVSWFEYRNGAAVTGVTDRNTVVNHFFDTPIRARSIAIHPLTWNGHISLRCEFYTQPVQSSVTQVGADIYTGDNCALNTGSGKREVVVPVKFQFEFATLPKVALNFDQIDCTDATNQTRIGVQPRNITTKGFDCVFYTWNENKVYSLRADYIATALE	soluble
MLTDQEKIDLVNALDFVVIEPHTQSIYVHNDEKTNGVLAKVLHTISVDEYIESFKKGSLIDIFPAAMQEAGAEGFKDGQFVIMPKKFYVDQCYAMSKEIERLTNLNNLHNIKPNTYQGLIHLEHHHHHH	soluble
MSGFSTEERAAPFSLEYRVFLKNEKGQYISPFHDIPIYADKDVFHMVVEVPRWSNAKMEIATKDPLNPIKQDVKKGKLRYVANLFPYKGYIWNYGAIPQTWEDPGHNDKHTGCCGDNDPIDVCEIGSKVCARGEIIGVKVLGILAMIDEGETDWKVIAINVDDPDAANYNDINDVKRLKPGYLEATVDWFRRYKVPDGKPENEFAFNAEFKDKDFAIDIIKSTHDHWKALVTKKTNGKGISCMNTTLSESPFKCDPDAARAIVDALPPPCESACTVPTDVDKWFHHQKN	soluble
MRAADAPDAPLPEDRRNAPVWFAHDLEAPRCTALFPRLADRRPALVVVGGFLGSGKTTFLNNCIEYHRARERFVAVIQNEVGATGVDARLMGDGAEVLALDEGCVCCSLAGSLAGGIRAITADFTPEVILLETTGLANPLNLLAELDTLRDMVRLDAVVTVVDAANIVPTLRDSDIARDQIRGADIIVCNKCDTVDETGRAALRATLTGLNGRAALHETSFGRIHPSLFMALEGERPPRGLMPAPHGTHATHADEGFAAVRLFFSGTIDEAALAPLLQQCPGAPFRIKGIVRVTDDEAPRLVQCVGARCEVERLDGGFEGTPFLVFIGRNPDETALLEHWAALGATAEPPAPQAEADTQPAQATKSASGGQSSDATRGCHDHHLEHHHHHH	not soluble
GLGFETMRDGIKVAAKETLLTPRFYTTDFDEMEQLFSKEINPNLDMEELNACLNEFRNDYNKVHFVRNETFKAAADKVTGETRRIFIEFLERSCTAEFSGFLLYKELARRMKASSPEVAEMFLLMSRDEARHAGFLNKALSDFNLALDLGFLTKNRTYTYFKPKFIIYATFLSEKIGYWRYITIYRHLQRNPDNQFYPLFEYFENWCQDENRHGDFLAACLKAKPELLNTFEAKLWSKFFCLSVYITMYLNDHQRTKFYESLGLNTRQFNQHVIIETNRATERLFPVVPDVEDPRFFEILNKMVDVNAKLVELSASSSPLAGLQKLPLLERMASYCLQLLFFKEKDVGSVDIAGSGASRNLAY	not soluble
MYKPKNINSVLTFYKDQIQLVVSDDQNQFNILFYQTIDNDGFYSKQQLKNKLRLKLALNQLVDQANYFLGFKLEKVVVVLAELIDDLKIHNFKSEIFFTGYDFDHKAMIKKEKQRFCEQNNQLTVMDTMVLNYHDVINNKITKSFAFNKSYVANLVAYSSKSNLIGELKFFLKRNVNLKVKKIISHHLALANSLSKKQNNMFVYLGQKTTELMLFMDNALVDVITNQFGKNHFIDIPANQENKPLLEFLVDNTTKIGDCYSLGMTYTDGDSYKEIKALTIGDLMQTVSDKIKTLIDFINSGSLTFFNKFKTLPKLLYFYTRSKQITNLFQANVALINPQFKTVDIYKNKIQFISENYLLSCEAISLQITNRIKNQISFDFTNADNIQKPKPKKHFMILSKHLTKFVQRLVK	soluble
MRIGLFGGSFDPIHLGHLLAASQAQEVLCLDRVLFVVAARPPHKVPVAPAEARYEMTLLAVAEDPRFTVSRLELDRPGPSYTVDTLREARRLFPQDELFFITGADAYRDVLTWKEGERLPEYATLVAVARPGYPLEEAPLPVVPLFVPEVGISSTEIRRRLKEGRSVRYWVPRAVEVYIEKHGLYR	soluble
MGSDKIHHHHHHMEKAERLTGTPDYAVLPGRILDKTLAGRGLQKAEFAERCGHSAKMISEIIAGKAPIMPETALEFERVLGMPASYWLTLESLYRLRLAEQRDRQRLSDQRDWAKRFPIAAMVRLGWIDKPSDRVDEVAKLLAFFGVASVEAWQAMTASAAEQIAYRRSPSFQSAPESVSAWLRRGEMVAGARPCGPFDEAGFRRVLKSVRELTREAPEVFQPSLIERCACVGVAVVFTPELPKTCLSGATRWLSKDKALIQLSLRHKTDDHLWFTFFHEAGHVLLHPKKLILEEKLKKGEAPTPESAQREREANVFAATTLIPRSAWMAFTAAGDFSAPRIRAFAKEHSLSPGIIVGQLQHDSHLSYATTLNSLKTTFRWPAESAVSHPSV	not soluble
MSQQYVYSMLRVSKVVPPQKTIIKDISLSFFPGAKIGLLGLNGAGKSTVLRIMAGVDKEFEGEAVPMGGIKIGYLPQEPELDPEKTVREEVESGLGEVAAAQKRLEEVYAEYANPDADFDALAEEQGRLEAIIAAGSSTGGGAEHELEIAADALRLPEW	not soluble
MAHHHHHHMADYEPEDNLEQNSTLSSESIQEDISSLLRTKLAGEQWNPAKVDGWVEDIVNSILTELAELKKPYKYIVTCVFMQRTGAALSVGFISLWDNTKDGMVHVPFENDSFHCLVTVYFLKND	not soluble
MDENLRQLAESILTDLTQDAPIANTMLKAKVFASKKNDKDLLSWIEHELNGYEENLPKYRLLDAGVKVDIHRGFQEVLGYNYPMGMVKDEKVRERLLHLPIHGSISEVEELSTKSGEGTIHIDIPIEIWYHHMRHCINGDIQRAYQFATVASVKQIMVKIKSLLIDYFLKIDKGESLSFLSLIKKETPTMQIIAGIVNTGS	not soluble
MEKIERLRSAFDEAGIDGILLTNEHSRRYMANFTGTAGVVLISKKRAQFITDFRYVEQASKQAVGYEIVQHAGLIIDEVAKQVKELGIQKLGFEQDTLTYSSYSAHKEAIDAEFIPTSGLVEKLRLIKTDSEIKILKEAAQIADAAFEHILSFIRPGVSEIEVSNELEFFMRKQGATSSSFDIIVASGLRSALPHGVASEKVIETGDFVTLDFGAYYKGYCSDITRTIAVGEPSDKLKEIYNIVLEAQLRGVNGIKAGLTGREADALTRDYITEKGYGEYFGHSTGHGIGLEIHEAPGLAFRSDTVLEPGMAVTVEPGIYIPGIGGVRIEDDIIVTSEGNEVITKSPKELIIL	not soluble
MSLKRIDRIYMYVKEKTAHLTKAEYDQGVTTQEIAEVLGIQRTNSSKDLNQLVREGKLIKTDGRPVRYIYQTLVTHVKPVTKHVVSYKETPVSEEKNTLQIDTKDIFAKIIGANGSMKNSVEQAKAAILYPPRGLNCLITGPTGSGKTYFAHAMYHFAKAHHVIDEETELIVFNCADYANNPELLMSHLFGYAKGAFTGADEEKMGIIDQADGGMLFLDEIHRLPPEGQEMIFYFMDHGTYSRLGETTKSHEANVRIVGATTEDPGSSLLETFVRRIPINIKLPAFEKRPANEKVDLVKIMIAHEANRTQRKISLTEDVAKALIGSVTYGNIGQLKSNIQLVCARGFLNHMQSPEISITIDDLTEGIRSGLIQLASNRSAMAELSKILEPKITVAPNEGHHHHHH	soluble
QAVVTQESALTTSPGETVTLTCRSSTGAVTTSNYANWVQEKPDHLFTGLIGGTNKRAPGVPARFSGSLIGDKAALTITGAQTEDEAIYFCALWDSNHLVFGGGTKLTVLGQPKSSPSVTLFPPSSEELETNKATLVCTITDFYPGVVTVDWKVDGTPVTQGMETTQPSKQSNNKYMASSYLTLTARAWERHSSYSCQVTHEGHTVEKSLSPADC	soluble
